Measurements taken from US20250306040A1 (UNIVERSITY OF KENTUCKY RESEARCH FOUNDATION, published 2025).
One block for each binder: values may come before it. No end group written: not given here.

What was measured:
[1] = biological target: T1, Aβ40 synthetic peptide (AS-24235, Anaspec) (human, UniProt P05067 672-711); experiment: amylin-Aβ sandwich ELISA on co-incubated peptides, human amylin against rat amylin
T1 construct: domain: Aβ40; also called human Aβ40
Procedure: The reaction was stopped by adding 50 μL of stop solution (N600, Thermo Scientific) after developing the signals, the plate was read at 450 nm in a spectrophotometer. Amylin-Aβ concentrations were calculated by generating a graph between relative optical density (O.D.) 450 of standards vs standard concentrations, after subtracting the optical density of standard blank and sample blank from the optical density of standards and samples respectively.
Amylin-Aβ aggregates were prepared using the procedure described by O'Nuallain et al. Briefly, 30 μM human amylin synthetic peptide (AS-60254-1, Anaspec) was incubated in PBSA (PBS+0.05% sodium azide) in a water bath at 37° C. for 5 hrs. Aβ₄₀ synthetic peptide (16.2 μM) (AS-24235, Anaspec) was preincubated at 37° C. for 2 hrs. […]
Specificity of amylin-Aβ sandwich ELISA was confirmed using a solution phase amylin-Aβ aggregation assay described in O'Nuallain et al. Synthetic human amylin and Aβ₄₀ peptides were incubated for promoting the amylin-Aβ aggregation and subjected to the amylin-Aβ sandwich ELISA. […] A robust amylin-Aβ immuno-reactivity signal was detected in co-aggregated amylin-Aβ solution, but not in the homogenous amylin and Aβ solutions (FIG. 2A). The aggregated amylin-Aβ solution was assayed for biochemical characteristics of amyloid by measuring the Thioflavin-T (Th-T) fluorescence signal intensity. […]

[2] = biological target: T1, Aβ40 synthetic peptide (AS-24235, …); experiment: time course (0 to 24 hours) of sandwich ELISA signal of human amylin incubated with Aβ40, in parallel with Th-T fluorescence
[3] = biological target: T1, Aβ40 synthetic peptide (AS-24235, …); experiment: amylin-Aβ sandwich ELISA on co-incubated peptides

T1 sequence (P05067 672-711 limits assumed): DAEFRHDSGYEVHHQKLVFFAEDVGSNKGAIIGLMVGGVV

fold amylin-Aβ ELISA signal intensity against rat amylin-Aβ co-aggregation [1]: ~7 fold
fold increase of signal intensity from the baseline [2]: 3 fold
B1: human amylin synthetic peptide (AS-60254-1, Anaspec) (peptide)
peptide: KCNTATCATQRLANFLVHSSNNFGAILSSTNVGSNTY
modifications: ends and bridges not checked; cysteine pairing not given here
notes: The same id is used for human amylin in human brain sections and in HIP rat pancreas; also called islet amyloid polypeptide; IAPP

binding result [3]: binds
B2: rat amylin (peptide, UniProt P12969 38-74, looked up)
peptide: KCNTATCATQRLANFLVRSSNNLGPVLPPTNVGSNTY
notes: also called rodent amylin; non-amyloidogenic rat amylin
